Assay results taken from PMC3155532.

How the values were obtained:
Details in all cases: remark: other sources report otherwise
[1] = molecular target: 3xflag-LRRK2 (leucine rich repeat kinase 2), wild type (UniProt Q5S007); test: SEC; cleared HEK293T cell lysates expressing 3xflag-LRRK2, Superose 6 10/300 GL, 4°C, SEC running buffer (25 mM Tris pH 7.4, 150 mM NaCl, 5 mM MgCl2, 0.02% Triton, 1 mM DTT) with 10 µM GDP or GTPγS; fractions read by flag-M2 dot blot
[2] = molecular target: 3xflag-LRRK2 (leucine rich repeat kinase 2), wild type (UniProt Q5S007); test: SEC; purified 3xflag-LRRK2 (flag-M2 beads, eluted with 3xflag peptide), Superose 6 10/300 GL, 4°C, SEC running buffer with 10 µM GDP or GTPγS; fractions read by flag-M2 dot blot; higher molecular weight peaks also seen
[3] = molecular target: 3xflag-LRRK2 (leucine rich repeat kinase 2), wild type (UniProt Q5S007); test: native gel or EMSA; native PAGE of 3xflag-LRRK2 purified from lysates treated with GDP, GTPγS or GMPPCP (10, 100 and 500 µM, 30 minutes at 30°C); silver stain and flag-M2 immunoblot

Measured: stoichiometry N

3xflag-LRRK2 (leucine rich repeat kinase 2), wild type, Q5S007 1-2527
2: all assays above
